Results from paper PMC12692541.

Test system: HalTzlAAA homotrinucleopeptide (synthetic (designed))
Experiment: fluorescence anisotropy
Details: none

Sequence: CCAGAUUUGAGCCUGGGAGCUCUCUGG [TAR UUU]
- Kd: 30.1 µM

Sequence: CCAGAGAGCCUGGGAGCUCUCUGG [ΔTAR]
- Kd: 161 µM
